# According to US20220204603A1 (PHARMABCINE, published 2022):
# B1: No. O12 optimized clone (screening of scFv phage library of No. 8 CDR3 variants) (scFv, V domains shown)
# VH: QVQLVESGGGLVKPGGSLRLSCAASGFTFSSYSMNWVRQAPGKGLEWVSSISASDGATYYADSVRGRFTISRDNSRSTLYLQMNSLRAEDTAVYYCAKSLASYSGPMGGMDVWGQGTTVTVSS
# VL: DIQMTQSPSSLSASVGDRVTITCRASRDISNYLAWYQQKPGKAPKSLIYGASNLQSGVSSQFSGSGSGTDFTLTINSLQPEDSATYYCQQYYSYPLTFGGGTKVDIKR
# B2: No. O4 optimized clone (screening of scFv phage library of No. 8 CDR3 variants) (scFv, part only; not given: scFv linker, part only)
# scFv, part: QVQLVESGGGLVKPGGSLRLSCAASGFTFSSYSMNWVRQAPGKGLEWVSSISASDGATYYADSVRGRFTISRDNSRSTLYLQMNSLRAEDTAVYYCAKTLAGYSGPMGGMDVWGQGTTVTVSSDIQMTQSPSSLSASVGDRVTITCRASRDISNYLAWYQQKPGKAPKSLIYGASNLQSGVSSQFSGSGSGTDFTLTINSLQPEDSATYYCQQYYSYPLTFGGGTKVDIKR
# B3: No. 3 monoclonal scFv phage (scFv)
# chain: QMQLVQSGGGLVQPGRSLKLSCAASGFSFDDYAMHWVRQAPGKGLEWVATIKDDGSQTYYVDSVKGRFTISRDNAKSSLFLQMNSLRAEDTAVYYCTTEGLMNGLHFDMWGQGTMVTVSSLVLTQPPSVSGAPGQGVTISCTGSSSNIGAGYDVHWYQQFPGTAPKLLISGNNNRPSGLPDRFSGSKSGTSASLAITGLQAEDEADYYCQSYDSRLGVVFGGGTKLTVLG
# Experiments:
# [1] = target: T1, Ang2 immobilized on a biosensor (Octet off-rate screening) (Homo sapiens (Human), UniProt O15123 19-496); assay: dissociation rate screening of optimized clones (method as in Example 3, Octet; not restated)
# T1 construct: also called Ang2 antigen; not shown: It is a His tag if hAng2-his (R&D 623-AN/CF) was used, or an Fc if hAng2-Fc (PharmAbcine) was used
# T1 sequence: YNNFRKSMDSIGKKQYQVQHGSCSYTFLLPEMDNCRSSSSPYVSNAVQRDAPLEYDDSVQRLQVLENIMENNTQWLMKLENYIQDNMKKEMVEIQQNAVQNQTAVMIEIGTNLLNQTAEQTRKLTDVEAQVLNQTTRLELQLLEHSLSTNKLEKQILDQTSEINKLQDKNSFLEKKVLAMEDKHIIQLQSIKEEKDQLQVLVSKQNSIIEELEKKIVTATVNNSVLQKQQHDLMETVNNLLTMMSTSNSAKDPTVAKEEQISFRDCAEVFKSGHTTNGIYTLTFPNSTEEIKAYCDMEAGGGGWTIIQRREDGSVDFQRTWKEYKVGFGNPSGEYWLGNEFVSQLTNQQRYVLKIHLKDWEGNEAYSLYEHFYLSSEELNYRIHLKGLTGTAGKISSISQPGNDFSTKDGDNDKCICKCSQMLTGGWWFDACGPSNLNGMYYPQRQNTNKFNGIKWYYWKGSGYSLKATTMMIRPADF
# [2] = target: Ang2 immobilized on a biosensor (Octet off-rate screening) (Homo sapiens (Human)) (UniProt O15123); assay: as above
# [3] = target: T2, His-tagged human Ang1 (R&D systems, 923-AN/CF) (human, UniProt Q15389 20-498, limits assumed); assay: phage ELISA, antigen coated at 1 µg/ml, anti-M13-HRP
# T2 construct: Bought protein; also called hAng1-his; not shown: His tag
# T2 sequence (looked up): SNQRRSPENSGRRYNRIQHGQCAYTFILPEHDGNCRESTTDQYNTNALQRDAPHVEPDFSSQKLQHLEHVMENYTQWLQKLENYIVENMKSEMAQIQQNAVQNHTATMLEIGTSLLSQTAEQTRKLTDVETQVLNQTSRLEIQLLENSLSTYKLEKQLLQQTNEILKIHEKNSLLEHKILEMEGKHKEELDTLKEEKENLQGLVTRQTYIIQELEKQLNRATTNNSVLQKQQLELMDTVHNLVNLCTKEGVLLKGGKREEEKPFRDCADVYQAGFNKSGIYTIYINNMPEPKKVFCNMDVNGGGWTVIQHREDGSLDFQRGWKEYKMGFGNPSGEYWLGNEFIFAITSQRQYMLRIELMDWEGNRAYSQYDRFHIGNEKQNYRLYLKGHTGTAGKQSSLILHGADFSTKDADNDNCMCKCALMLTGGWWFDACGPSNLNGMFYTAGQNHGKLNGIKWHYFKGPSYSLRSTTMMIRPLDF
binder,measurement,setting,value
B1,koff,[1],1.7e-05 s⁻¹
B2,koff,[2],9.01e-05 s⁻¹
B3,OD,[3],0.025 OD
